Experimental data reported in US20130281922A1 (KANCERA, published 2013).

Target: T1, human ROR1 on cells (human, UniProt Q01973 30-937)
T1 construct: whole, on cells
Assay: Scatchard plot of 125I-labelled 009-G03 binding to RPMI-8226 cells, 2.5 h on ice
Description: Antibody was labelled with ¹²⁵I using free Iodine and test tubes pre-coated with the oxidant reagent Iodogen (1,3,4,6-tetrachloro-3α,6α-diphenylglycoluri, Thermo scientific), according to manufactures instruction. Briefly 200 μg of antibody was labeled for 10 minutes in PBS and free iodine were removed using a small disposable desalting columns (NAP 5, GE Healthcare Life science). […] 0.5×10⁶ cells were incubated for 2.5 h on ice with different concentrations of ¹²⁵I-labelled 009-G03 antibody. Free nonbinding antibody (F) was separated from cell bound antibody (B) by centrifugation through a 40% Ficoll-cushion and samples were analysed in a gamma counter (FIG. 29).

T1 sequence (Q01973 30-937): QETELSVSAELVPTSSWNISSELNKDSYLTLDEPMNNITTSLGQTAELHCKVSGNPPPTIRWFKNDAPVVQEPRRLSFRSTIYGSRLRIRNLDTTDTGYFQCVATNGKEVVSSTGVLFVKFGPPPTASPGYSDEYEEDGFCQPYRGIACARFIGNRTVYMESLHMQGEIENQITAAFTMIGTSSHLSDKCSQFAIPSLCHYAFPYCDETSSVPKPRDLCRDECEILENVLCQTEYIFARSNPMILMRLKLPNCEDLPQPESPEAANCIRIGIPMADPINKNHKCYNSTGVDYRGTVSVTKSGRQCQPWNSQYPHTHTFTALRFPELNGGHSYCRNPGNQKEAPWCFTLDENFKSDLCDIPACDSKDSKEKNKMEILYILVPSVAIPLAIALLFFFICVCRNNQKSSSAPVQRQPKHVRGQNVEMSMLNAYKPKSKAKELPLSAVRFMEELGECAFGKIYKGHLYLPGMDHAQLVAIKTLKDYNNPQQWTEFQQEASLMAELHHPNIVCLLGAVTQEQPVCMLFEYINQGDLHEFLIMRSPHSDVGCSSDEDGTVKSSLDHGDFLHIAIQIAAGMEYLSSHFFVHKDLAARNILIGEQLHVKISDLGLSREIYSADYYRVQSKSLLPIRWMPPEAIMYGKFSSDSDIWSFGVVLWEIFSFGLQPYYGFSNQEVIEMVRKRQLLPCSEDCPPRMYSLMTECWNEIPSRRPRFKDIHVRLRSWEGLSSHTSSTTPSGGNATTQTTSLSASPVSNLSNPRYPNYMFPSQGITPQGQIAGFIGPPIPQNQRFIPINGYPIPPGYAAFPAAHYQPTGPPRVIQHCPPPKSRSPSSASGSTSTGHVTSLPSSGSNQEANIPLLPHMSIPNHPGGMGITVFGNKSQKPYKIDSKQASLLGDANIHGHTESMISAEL

Kd: 1 nM
B1: ROR1-009-G03 (antibody, V domains shown)
VH: EVQLLESGGGLVQPGGSLRLSCAASGFTFSDYYMSWIRQAPGKGLEWVSAISGSGGSTYYADSVKGRFTISRDNSKNTLYLQMNSLRAEDTAVYYCAKEDWEGASFDYWGQGTLVTVSS
VL: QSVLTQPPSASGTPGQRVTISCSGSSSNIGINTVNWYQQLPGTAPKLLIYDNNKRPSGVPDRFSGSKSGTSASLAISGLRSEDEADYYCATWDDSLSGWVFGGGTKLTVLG
notes: also called ROR 009 G03; ROR1 specific mAb 009-G03
